The test concerns the target α-casein.
Take “GST-CK1δ^(S328A, T397A) (FP1268) (from UniProt Q06486 1-415) (enzyme)”: the Km of α-casein phosphorylation by the kinase (in vitro kinase assay, Michaelis-Menten fit) worked out at 6.63 µM. The same measure for “GST-CK1δ^(S328A, S370A) (FP1292) (from UniProt Q06486 1-415) (enzyme)”: 5.31 µM; for “GST-CK1δ^T397A (FP1184) (from UniProt Q06486 1-415) (enzyme)”: 7.2 µM; for “GST-CK1δ^S328A (FP1267) (from UniProt Q06486 1-415) (enzyme)”: 5.49 µM. Consider “GST-CK1δ (FP449), wild-type full length rat CK1δ (from UniProt Q06486 1-415) (enzyme)”, for which the Km of α-casein phosphorylation by the kinase (in vitro kinase assay, Michaelis-Menten fit) worked out at 4.84 µM. The same measure for “GST-CK1δ^(S328A, S370A, T397A) (FP1293) (from UniProt Q06486 1-415) (enzyme)”: 7.74 µM; for “GST-CK1δ^S370A (FP1030) (from UniProt Q06486 1-415) (enzyme)”: 7.38 µM.
